From patent publication US20220143148A1, “COMPOSITIONS AND METHODS FOR MODULATING CGRP SIGNALING TO REGULATE INTESTINAL INNATE LYMPHOID CELLS” (The Broad Institute, Inc., priority 2019, published 2022)

Tested on: small intestinal immune cells
Test: Droplet-based scRNA-seq of small intestinal immune cells (LP and PP), OVA vs PBS, clustering and differential expression
Type: in vivo, mouse
Conditions: cluster ID 6, PP, OVA vs PBS
From the text: To comprehensively characterize small intestinal immune cells, Applicants generated scRNA-Seq profiles for 58,067 immune cells collected from lamina propria (LP) and Peyer's patch (PP) regions at steady state and after induction of a type 2 inflammatory reaction to ovalbumin (OVA) (Brandt et al., 2003) (FIGS. 1A and 8A). To ensure sufficient representation of rare cells, Applicants combined a normalization strategy—removing by flow sorting either a portion of IgD+ naïve B cells, which are the most abundant cell type in PPs, or all CD19+ and CD3+ T cells (FIG. 8B, Methods)—with profiling of a sufficiently large number of cells number (P>0.99 to recover at least 15 cells from each cluster, Methods) by massively parallel scRNA-seq (Haber et al., 2017) (Methods). Applicants obtained 36,797 and 21,270 high quality cells passing initial filtering (Methods) from PP and LP regions, respectively.
Overall, Applicants annotated 27 cell subsets across the two compartments, spanning T cells, B cells, ILCs, dendritic cells (DCs), myeloid cells and stromal cells, in frequencies ranging from 0.07% to 14%. Briefly, Applicants first partitioned the cells from the PP regions by unsupervised clustering (Methods) into 46 clusters, retained the 97% of cells that were robustly assigned cell identities in each cluster (Methods), assigned the cells from the LP regions to the 46 clusters using a classifier (Methods), and visualized the data with scvis (Ding et al., 2018), a deep generative model-based method (FIGS. 1B and 8C, Methods). Next, Applicants identified genes that were differentially expressed between the cells in each cluster and the remaining cells (Table 1, Methods), as well as between pairs of clusters (Table 2), to elucidate identities of similar cell types/states. Applicants excluded from downstream analysis clusters mostly consisting of contaminants from epithelium, likely doublets, or cells with a small number of Unique Molecular Identifiers (UMIs) (FIGS. 1C and 8D), or lacking distinct markers (Methods). Altogether, Applicants retained 27 clusters spanning 85% of the cells and each associated with distinct marker genes (FIG. 8E, Methods).
To induce allergic reaction to OVA, 6 to 7 weeks old mice were sensitized twice, two weeks apart, with 50 μg of OVA plus 1 mg of aluminum potassium sulfate adjuvant via intraperitoneal injection. Two weeks later, mice were orally administered with 50 mg of OVA on every other day for a total of five times. 1 μg of α-CGRP peptide was administered simultaneously when indicated. Mice were deprived of food for 3-4 hours in cages with wood chip bedding for limiting antigen degradation in the stomach before each intragastric challenge.
Isolation of cells from Peyer's patches (PPs). Peyer's patches (PPs) were carefully dissected from the small intestine under a stereo microscope using a fine scissor, pierced once with a fine forcep. Tissues were digested in freshly made digestion buffer (RPMI-1640 containing 100 μg/ml Liberase™ and 50 μg/ml DNase I at 37° C. on a roto-mixer. After 15 min, tissues were very gently mixed using a 1 ml pipette. The supernatant was collected and added to ice-cold MACS buffer (pH 7.4; PBS plus 2% FCS and 2 mM EDTA). Pre-warmed (37° C.) fresh digestion buffer was added to the remaining tissues. After rotation at 37° C. for 15 min, the mixture was vigorously mixed using a 1 ml pipette for 1 min. Supernatants from the two steps were combined and passed through 70 μm filters and stained for FACS (below).
Isolation of cells from the lamina propria (LP). The small intestines were opened longitudinally and washed in ice-cold PBS. For scRNA-seq, roughly 0.5 cm of fragments from each of the distal, middle and proximal regions without visible PPs were collected. Epithelial cells were dissociated by tissue rotation in pre-warmed (37° C.) PBS containing 10 mM EDTA at 37° C. for 15 min, followed by additional incubation on ice for 15 min. Tissues were then shaken vigorously. […]

B1: OVA (protein, UniProt P01012 2-386, looked up)
Ovalbumin: GSIGAASMEFCFDVFKELKVHHANENIFYCPIAIMSALAMVYLGAKDSTRTQINKVVRFDKLPGFGDSIEAQCGTSVNVHSSLRDILNQITKPNDVYSFSLASRLYAEERYPILPEYLQCVKELYRGGLEPINFQTAADQARELINSWVESQTNGIIRNVLQPSSVDSQTAMVLVNAIVFKGLWEKAFKDEDTQAMPFRVTEQESKPVQMMYQIGLFRVASMASEKMKILELPFASGTMSMLVLLPDEVSGLEQLESIINFEKLTEWTSSNVMEERKIKVYLPRMKMEEKYNLTSVLMAMGITDVFSSSANLSGISSAESLKISQAVHAAHAEINEAGREVVGSAEAGVDAASVSEEFRADHPFLFCIKHIATNAVLFFGRCVSP
Dnajc7: LN (average fold change): 0.197
Dusp1: LN (average fold change): −0.366
Dusp5: LN (average fold change): −0.167
Dusp18: LN (average fold change): −0.789
Egr1: LN (average fold change): −0.987
Emp3: LN (average fold change): 0.172
Erdr1: LN (average fold change): −0.520
Fabp2: LN (average fold change): −1.495
Fam46c: LN (average fold change): −0.440
Filip1l: LN (average fold change): −0.295
Fkbp5: LN (average fold change): 0.573
Fosb: LN (average fold change): −0.556
Fosl2: LN (average fold change): −0.387
Foxp1: LN (average fold change): −0.169
Fyn: LN (average fold change): −0.230
Gapdh: LN (average fold change): 0.206
Gapt: LN (average fold change): −0.204
Gnb1: LN (average fold change): −0.247
Grasp: LN (average fold change): −0.617
Gtf2i: LN (average fold change): 0.283
H2-Aa: LN (average fold change): 0.220
H2-Ab1: LN (average fold change): 0.238
H2-Eb1: LN (average fold change): 0.228
H2afj: LN (average fold change): 0.166
Hes6: LN (average fold change): 0.290
Hist1h1c: LN (average fold change): 0.792
Hist2h4: LN (average fold change): 1.036
Ier2: LN (average fold change): −0.265
Ier5: LN (average fold change): 0.332
Ifi30: LN (average fold change): 0.256
Ifrd1: LN (average fold change): −0.459
Igha: LN (average fold change): 0.596
Igkc: LN (average fold change): 0.194
Itpkb: LN (average fold change): −0.230
Jun: LN (average fold change): 0.499
Junb: LN (average fold change): −0.174
Jund: LN (average fold change): −0.422
Kdm6b: LN (average fold change): −0.488
Klf4: LN (average fold change): −0.763
Klk1: LN (average fold change): 0.243
Kmt2e: LN (average fold change): −0.156
Lag3: LN (average fold change): 0.315
Lgals1: LN (average fold change): 0.174
Lmnb1: LN (average fold change): −0.415
Ly6c1: LN (average fold change): −0.173
Lyz1: LN (average fold change): −1.858
Mcl1: LN (average fold change): −0.199
Mcpt1: LN (average fold change): 0.479
Mcpt2: LN (average fold change): 0.749
Mir142hg: LN (average fold change): −0.649
Mpeg1: LN (average fold change): 0.185
Napsa: LN (average fold change): 0.245
Neat1: LN (average fold change): 0.364
Nfkbia: LN (average fold change): −0.191
Nfkbiz: LN (average fold change): −0.288
Npc2: LN (average fold change): 0.166
Nr4a1: LN (average fold change): −0.422
Nr4a3: LN (average fold change): −0.556
Odc1: LN (average fold change): −0.325
Os9: LN (average fold change): 0.265
Pik3ip1: LN (average fold change): 0.445
Pim1: LN (average fold change): −0.188
Plek: LN (average fold change): −0.205
Plekho2: LN (average fold change): −0.406
Pltp: LN (average fold change): 0.260
Pnrc1: LN (average fold change): −0.212
Ppia: LN (average fold change): 0.186
Ppp1r16b: LN (average fold change): −0.419
Ppp2ca: LN (average fold change): −0.356
Psap: LN (average fold change): 0.202
Ptp4a1: LN (average fold change): −0.201
Ptpre: LN (average fold change): −0.452
Rel: LN (average fold change): −0.305
Rgs1: LN (average fold change): 0.548
